T1: B3GNT2 (Homo sapiens, UniProt Q9NY97)
T1 construct: The respective ORFs of candidate genes [CD274 (NM_014143), MCL1 (NM_021960), JUNB (NM_002229), and B3GNT2 (NM_006577)] were synthesized; expressed in transfected cells; host or cells: A375 melanoma cells (lentiviral ORF overexpression)
T1 sequence (Q9NY97 1-397): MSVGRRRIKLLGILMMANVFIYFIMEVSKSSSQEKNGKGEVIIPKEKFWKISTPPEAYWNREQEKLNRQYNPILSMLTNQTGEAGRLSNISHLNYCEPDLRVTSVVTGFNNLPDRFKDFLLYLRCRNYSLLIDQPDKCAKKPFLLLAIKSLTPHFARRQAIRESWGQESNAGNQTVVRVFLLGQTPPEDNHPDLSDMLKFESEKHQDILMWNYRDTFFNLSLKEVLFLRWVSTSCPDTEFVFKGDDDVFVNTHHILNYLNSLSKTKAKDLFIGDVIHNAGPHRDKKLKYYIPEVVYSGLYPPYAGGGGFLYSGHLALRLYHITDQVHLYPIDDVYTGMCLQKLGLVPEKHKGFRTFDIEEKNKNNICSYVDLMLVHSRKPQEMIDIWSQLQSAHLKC

B1: TIMP3 (protein)
chain: CTCSPSHPQDAFCNSDIVIRAKVVGKKLVKEGPFGTLVYTIKQMKMYRGFTKMPHVQYIHTEASESLCGLKLEVNKYQYLLTGRVYDGKMYTGLCNFVERWDQLTLSQRKGLNYRYHLGCNCKIKSCYYLPCFVTSKNECLWTDMLSNFGYPGYQSKHYACIRQKGGYCSWYRGWAPPDKSIINATDP
B2: TGM3 (protein)
chain: AALGVQSINWQTAFNRQAHHTDKFSSQELILRRGQNFQVLMIMNKGLGSNERLEFIVSTGPYPSESAMTKAVFPLSNGSSGGWSAVLQASNGNTLTISISSPASAPIGRYTMALQIFSQGGISSVKLGTFILLFNPWLNVDSVFMGNHAEREEYVQEDAGIIFVGSTNRIGMIGWNFGQFEEDILSICLSILDRSLNFRRDAATDVASRNDPKYVGRVLSAMINSNDDNGVLAGNWSGTYTGGRDPRSWNGSVEILKNWKKSGFSPVRYGQCWVFAGTLNTALRSLGIPSRVITNFNSAHDTDRNLSVDVYYDPMGNPLDKGSDSVWNFHVWNEGWFVRSDLGPSYGGWQVLDATPQERSQGVFQCGPASVIGVREGDVQLNFDMPFIFAEVNADRITWLYDNTTGKQWKNSVNSHTIGRYISTKAVGSNARMDVTDKYKYPEGSDQERQVFQKALGKLKPNTPFAATSSMGLETEEQEPSIIGKLKVAGMLAVGKEVNLVLLLKNLSRDTKTVTVNMTAWTIIYNGTLVHEVWKDSATMSLDPEEEAEHPIKISYAQYEKYLKSDNMIRITAVCKVPDESEVVVERDIILDNPTLTLEVLNEARVRKPVNVQMLFSNPLDEPVRDCVLMVEGSGLLLGNLKIDVPTLGPKEGSRVRFDILPSRSGTKQLLADFSCNKFPAIKAMLSIDVAE
B3: MYL9 (protein)
chain: SSKRAKAKTTKKRPQRATSNVFAMFDQSQIQEFKEAFNMIDQNRDGFIDKEDLHDMLASLGKNPTDEYLEGMMSEAPGPINFTMFLTMFGEKLNGTDPEDVIRNAFACFDEEASGFIHEDHLRELLTTMGDRFTDEEVDEMYREAPIDKKGNFNYVEFTRILKHGAKDKDD
B4: FAM3C (protein)
chain: QVFEIKMDASLGNLFARSALDTAARSTKPPRYKCGISKACPEKHFAFKMASGAANVVGPKICLEDNVLMSGVKNNVGRGINVALANGKTGEVLDTKYFDMWGGDVAPFIEFLKAIQDGTIVLMGTYDDGATKLNDEARRLIADLGSTSITNLGFRDNWVFCGGKGIKTKSPFEQHIKNNKDTNKYEGWPEVVEMEGCIPQKQD
B5: SLC25A13 (protein)
chain: AAAKVALTKRADPAELRTIFLKYASIEKNGEFFMSPNDFVTRYLNIFGESQPNPKTVELLSGVVDQTKDGLISFQEFVAFESVLCAPDALFMVAFQLFDKAGKGEVTFEDVKQVFGQTTIHQHIPFNWDSEFVQLHFGKERKRHLTYAEFTQFLLEIQLEHAKQAFVQRDNARTGRVTAIDFRDIMVTIRPHVLTPFVEECLVAAAGGTTSHQVSFSYFNGFNSLLNNMELIRKIYSTLAGTRKDVEVTKEEFVLAAQKFGQVTPMEVDILFQLADLYEPRGRMTLADIERIAPLEEGTLPFNLAEAQRQQKASGDSARPVLLQVAESAYRFGLGSVAGAVGATAVYPIDLVKTRMQNQRSTGSFVGELMYKNSFDCFKKVLRYEGFFGLYRGLLPQLLGVAPEKAIKLTVNDFVRDKFMHKDGSVPLAAEILAGGCAGGSQVIFTNPLEIVKIRLQVAGEITTGPRVSALSVVRDLGFFGIYKGAKACFLRDIPFSAIYFPCYAHVKASFANEDGQVSPGSLLLAGAIAGMPAASLVTPADVIKTRLQVAARAGQTTYSGVIDCFRKILREEGPKALWKGAGARVFRSSPQFGVTLLTYELLQRWFYIDFGGVKPMGSEPVPKSRINLPAPNPDHVGGYKLAVATFAGIENKFGLYLPLFKPSVSTSKAIGGGP
B6: FAM3A (protein)
chain: FPRIQQLFTSPESSVTAAPRARKYKCGLPQPCPEEHLAFRVVSGAANVIGPKICLEDKMLMSSVKDNVGRGLNIALVNGVSGELIEARAFDMWAGDVNDLLKFIRPLHEGTLVFVASYDDPATKMNEETRKLFSELGSRNAKELAFRDSWVFVGAKGVQNKSPFEQHVKNSKHSNKYEGWPEALEMEGCIPRRSTAS
B7: CHCHD6 (protein)
chain: GSTESSEGRRVSFGVDEEERVRVLQGVRLSENVVNRMKEPSSPPPAPTSSTFGLQDGNLRAPHKESTLPRSGSSGGQQPSGMKEGVKRYEQEHAAIQDKLFQVAKREREAATKHSKASLPTGEGSISHEEQKSVRLARELESREAELRRRDTFYKEQLERIERKNAEMYKLSSEQFHEAASKMESTIKPRRVEPVCSGLQAQILHCYRDRPHEVLLCSDLVKAYQRCVSAAHKG
B8: PIP (protein)
chain: QDNTRKIIIKNFDIPKSVRPNDEVTAVLAVQTELKECMVVKTYLISSIPLQGAFNYKYTACLCDDNPKTFYWDFYTNRTVQIAAVVDVIRELGICPDDAAVIPIKNNRFYTIEILKVE
B9: HYOU1 (protein)
chain: LAVMSVDLGSESMKVAIVKPGVPMEIVLNKESRRKTPVIVTLKENERFFGDSAASMAIKNPKATLRYFQHLLGKQADNPHVALYQARFPEHELTFDPQRQTVHFQISSQLQFSPEEVLGMVLNYSRSLAEDFAEQPIKDAVITVPVFFNQAERRAVLQAARMAGLKVLQLINDNTATALSYGVFRRKDINTTAQNIMFYDMGSGSTVCTIVTYQMVKTKEAGMQPQLQIRGVGFDRTLGGLEMELRLRERLAGLFNEQRKGQRAKDVRENPRAMAKLLREANRLKTVLSANADHMAQIEGLMDDVDFKAKVTRVEFEELCADLFERVPGPVQQALQSAEMSLDEIEQVILVGGATRVPRVQEVLLKAVGKEELGKNINADEAAAMGAVYQAAALSKAFKVKPFVVRDAVVYPILVEFTREVEEEPGIHSLKHNKRVLFSRMGPYPQRKVITFNRYSHDFNFHINYGDLGFLGPEDLRVFGSQNLTTVKLKGVGDSFKKYPDYESKGIKAHFNLDESGVLSLDRVESVFETLVEDSAEEESTLTKLGNTISSLFGGGTTPDAKENGTDTVQEEEESPAEGSKDEPGEQVELKEEAEAPVEDGSQPPPPEPKGDATPEGEKATEKENGDKSEAQKPSEKAEAGPEGVAPAPEGEKKQKPARKRRMVEEIGVELVVLDLPDLPEDKLAQSVQKLQDLTLRDLEKQEREKAANSLEAFIFETQDKLYQPEYQEVSTEEQREEISGKLSAASTWLEDEGVGATTVMLKEKLAELRKLCQGLFFRVEERKKWPERLSALDNLLNHSSMFLKGARLIPEMDQIFTEVEMTTLEKVINETWAWKNATLAEQAKLPATEKPVLLSKDIEAKMMALDREVQYLLNKAKFTKPRPRPKDKNGTRAEPPLNASASDQGEKVIPPAGQTEDAEPISEPEKVETGSEPGDTEPLELGGPGAEPEQKEQSTGQKRPLKNDEL
B10: PRDX2 (protein)
chain: ASGNARIGKPAPDFKATAVVDGAFKEVKLSDYKGKYVVLFFYPLDFTFVCPTEIIAFSNRAEDFRKLGCEVLGVSVDSQFTHLAWINTPRKEGGLGPLNIPLLADVTRRLSEDYGVLKTDEGIAYRGLFIIDGKGVLRQITVNDLPVGRSVDEALRLVQAFQYTDEHGEVCPAGWKPGSDTIKPNVDDSKEYFSKHN
B11: CALR (protein)
chain: EPAVYFKEQFLDGDGWTSRWIESKHKSDFGKFVLSSGKFYGDEEKDKGLQTSQDARFYALSASFEPFSNKGQTLVVQFTVKHEQNIDCGGGYVKLFPNSLDQTDMHGDSEYNIMFGPDICGPGTKKVHVIFNYKGKNVLINKDIRCKDDEFTHLYTLIVRPDNTYEVKIDNSQVESGSLEDDWDFLPPKKIKDPDASKPEDWDERAKIDDPTDSKPEDWDKPEHIPDPDAKKPEDWDEEMDGEWEPPVIQNPEYKGEWKPRQIDNPDYKGTWIHPEIDNPEYSPDPSIYAYDNFGVLGLDLWQVKSGTIFDNFLITNDEAYAEEFGNETWGVTKAAEKQMKDKQDEEQRLKEEEEDKKRKEEEEAEDKEDDEDKDEDEEDEEDKEEDEEEDVPGQAKDEL

Biological target: T1, B3GNT2
Test: Co-IP of FLAG-tagged B3GNT2 followed by mass spectrometry
Format: cell-based
Design: C-term IgG / C-term flag: unit not given here
Conditions: Co-IP followed by mass spectrometry of B3GNT2; C-term tag, FLAG pull-down
Procedure, shortened: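 FLAG-tagged B3GNT2 immunoprecipitated from cell lysate (HEPES, 1% Triton X-100, 150 mM NaCl) with anti-FLAG versus […], overnight at 4° C, then captured on Protein A/G magnetic beads for 4 h. Two biological replicates per condition. Peptides fractionated and analyzed by nano-LC on an Orbitrap Elite in data-dependent mode.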

Row | C-term flag | Molecule
1 | 3 | B1

Same assay, conditions: Co-IP followed by mass spectrometry of B3GNT2; C-term tag, IgG pull-down

Row | C-term IgG | Molecule
2 | 0 | B1

Same assay, conditions: Co-IP followed by mass spectrometry of B3GNT2; N-term tag, FLAG pull-down

Row | N-term FLAG | Molecule
3 | 0 | B1

Same assay, conditions: Co-IP followed by mass spectrometry of B3GNT2; N-term tag, IgG pull-down

Row | N-term IgG | Molecule
4 | 0 | B1

Same assay, conditions: Co-IP with FLAG antibody, C-terminally FLAG-tagged B3GNT2; mass spectrometry count, unit not given

Row | C-term flag | Molecule
5 | 5 | B2
6 | 0 | B3
7 | 23 | B4
8 | 0 | B5
9 | 18 | B6
10 | 3 | B7
11 | 3 | B8
12 | 27 | B9
13 | 5 | B10
14 | 20 | B11

Same assay, conditions: Co-IP with FLAG antibody, N-terminally FLAG-tagged B3GNT2; mass spectrometry count, unit not given

Row | N-term FLAG | Molecule
15 | 9 | B2
16 | 3 | B3
17 | 2 | B4
18 | 3 | B5
19 | 9 | B6
20 | 0 | B7
21 | 4 | B8
22 | 0 | B9
23 | 9 | B10
24 | 6 | B11

Same assay, conditions: Co-IP with IgG control antibody, C-terminally FLAG-tagged B3GNT2; mass spectrometry count, unit not given

Row | C-term IgG | Molecule
25 | 3 | B2
26 | 0 | B3
27 | 0 | B4
28 | 0 | B5
29 | 0 | B6
30 | 0 | B7
31 | 2 | B8
32 | 0 | B9
33 | 0 | B10
34 | 0 | B11

Same assay, conditions: Co-IP with IgG control antibody, N-terminally FLAG-tagged B3GNT2; mass spectrometry count, unit not given

Row | N-term IgG | Molecule
35 | 2 | B2
36 | 0 | B3
37 | 0 | B4
38 | 0 | B5
39 | 0 | B6
40 | 0 | B7
41 | 0 | B8
42 | 0 | B9
43 | 5 | B10
44 | 0 | B11

From patent publication US20240261333A1, “NOVEL TARGETS FOR ENHANCING ANTI-TUMOR IMMUNITY” (THE BROAD INSTITUTE, INC., priority 2021, published 2024)
